Data published in patent US20200277385A1 (LABORATOIRE FRANCAIS DU FRACTIONNEMENT ET DES …, published 2020).
Substitutions are numbered along the chain they refer to.

Key:
[1] = biological target: T1, human CD303 antigen expressed on cells (human, UniProt Q8WTT0 1-213); experiment: cell-based or functional assay
T1 sequence: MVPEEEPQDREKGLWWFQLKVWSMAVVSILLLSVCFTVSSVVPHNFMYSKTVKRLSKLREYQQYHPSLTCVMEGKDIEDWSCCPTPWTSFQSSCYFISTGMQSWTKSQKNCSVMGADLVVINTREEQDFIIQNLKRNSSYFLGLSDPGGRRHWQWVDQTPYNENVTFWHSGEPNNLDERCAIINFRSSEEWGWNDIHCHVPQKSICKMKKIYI

[2] = biological target: T1, human CD303 antigen expressed on cells; experiment: flow cytometry on CAL-1 cells
Protocol: (§1) The CD303-expressing cells and the antibodies are prepared in diluent (PBS+1% FCS). 1·10⁵ cells are incubated at 4° C. for 30 minutes with 100 μL of antibody (anti-CD303 or negative control) at various concentrations (0-40 μg/mL, final concentration).
(§2) After washing with the diluent, the antibodies are visualized by addition of a phycoerythrin (PE)-coupled goat anti-mouse IgG F(ab′)₂ fragment (100 μL diluted to 1:100 in the diluent) for 45 minutes at 4° C. The cells are then washed and analyzed by flow cytometry (FC500, Beckman Coulter).

FcγRIIIa (CD16a) [3] = biological target: T2, FcγRIIIa (CD16a) (UniProt P08637 17-254, limits assumed); experiment: competition with 3G8-PE for CD16 on NK cells, flow cytometry
T2 construct: whole, on cells; also called Fcγ receptor III
T2 sequence (P08637 17-254 limits assumed): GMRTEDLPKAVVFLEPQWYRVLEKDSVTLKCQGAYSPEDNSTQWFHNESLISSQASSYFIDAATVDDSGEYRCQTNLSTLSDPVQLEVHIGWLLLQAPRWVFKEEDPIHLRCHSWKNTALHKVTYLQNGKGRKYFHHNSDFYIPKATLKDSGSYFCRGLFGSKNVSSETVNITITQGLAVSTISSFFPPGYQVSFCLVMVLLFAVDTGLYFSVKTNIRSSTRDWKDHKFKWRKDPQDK

[4] = biological target: T1, human CD303 antigen expressed on cells; experiment: flow cytometry on Fcγ chain-CD303 Jurkat cells
Protocol: as §1, §2

[5] = biological target: T1, human CD303 antigen expressed on cells; experiment: cell-based or functional assay; remark: listed apart in the source
FcγRIIIa (CD16a) [6] = biological target: T2, FcγRIIIa (CD16a); experiment: cell-based or functional assay
[7] = biological target: T1, human CD303 antigen expressed on cells; experiment: flow cytometry on CAL-1 cells, 0.1 µg/mL, supernatant
Protocol: The line used to carry out this technique, CAL-1, is a leukemic cell line of plasmacytoid dendritic cells obtained from a BPDCN patient. The antibodies produced were tested in supernatant, but also in forms purified by affinity chromatography with protein A-sepharose (not elaborated upon herein).
For cell staining, the cells and the antibodies are prediluted with PBS/1% FCS. In a 100 μL reaction volume, 1·10⁵ cells are incubated at 4° C. for 30 minutes with the anti-CD303 antibodies to be tested, at two concentrations: 0.1 μg/mL or 1 μg/mL. This incubation is followed with several washings. The cell/antibody complexes thus formed are then contacted for 30 minutes at 4° C. with the secondary antibody diluted 1:50, an anti-human IgG Fc F(ab′)₂ coupled to a fluorochrome, phycoerythrin. […] Various negative controls are used to eliminate possible nonspecific binding, such as: the cells alone or directly in contact with the secondary antibody, or replacing the antibody tested with an irrelevant chimeric antibody (factor VIII anti-idiotype).

CD303 ectodomain = biological target: T3, CD303 ectodomain (human, UniProt Q8WTT0 45-213); experiment: ELISA on coated CD303 ectodomain, 5 ng/mL antibody
T3 construct: also called ectodomain of the human CD303 antigen
T3 sequence: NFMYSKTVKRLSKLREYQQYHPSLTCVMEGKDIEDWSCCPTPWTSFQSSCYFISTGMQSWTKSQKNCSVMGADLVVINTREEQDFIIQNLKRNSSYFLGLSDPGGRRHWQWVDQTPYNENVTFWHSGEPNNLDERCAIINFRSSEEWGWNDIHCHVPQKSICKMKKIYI
Protocol: This technique, which uses a colorimetric approach, makes it possible to detect and visualize antigen-antibody interactions. The principle of ELISA is, first, to coat each well of a MaxiSorp plate with 10 ng of the antigen, in this case the CD303 ectodomain. The latter was purchased from the supplier Mybiosource. Second, the various antibodies produced, contained in the supernatant, are all diluted to the same concentration, and contacted with the antigen to allow them to bind. A third step consists in adding the secondary antibodies, HRP-conjugated anti-human antibody, necessary for amplified detection of the antigen-binding of the anti-CD303 antibodies. Lastly, detection is carried out using a solution containing the substrate for the enzyme (3,3′,5,5′-tetramethylbenzidine, or TMB). The appearance of coloring of the substrate indicates the formation of the antigen-antibody complex. The intensity of this coloring is proportional to the amount of enzyme present and thus to the amount of antibody tested bound to the antigen. The reaction is stopped by adding H₂SO₄ (acid). These colors are read using a spectrophotometer at a wavelength of 450 nm.
A concentration of 5 ng/mL is used to classify the humanized antibodies (FIG. 10).

B1: chimeric antibody 104C12 (antibody, human IgG1, kappa)
heavy: not shown
light: DLQMTQTPSSLSASLGDRVTISCRASQDINNYLSWYQEKPDGTFKLLIYYTSRLHSGVPSRFSGSGSGTDYSLTVRNLEQEDIGTYFCQQGKTLPWTFGGGTKLEIRRTVAAPSVFIFPPSDEQLKSGTASVVCLLNNFYPREAKVQWKVDNALQSGNSQESVTEQDSKDSTYSLSSTLTLSKADYEKHKVYACEVTHQGLSSPVTKSFNRGEC
notes: Produced in YB2/0
**Q.** B1 was tested. Which “ADCC EC50, Fcγ chain-CD303 Jurkat target cells with NK cells” value [1] did it give?
**A.** 0.214 ng/mL

**Q.** And the “ADCC Emax (% lysis), Fcγ chain-CD303 Jurkat target cells with NK cells” value [1]?
**A.** 41.8 % lysis

**Q.** And the “Bmax (MFI)” value [2]?
**A.** 29 MFI

**Q.** And the EC50 [2]?
**A.** 0.345 µg/mL

**Q.** And the IC50 (FcγRIIIa (CD16a) [3])?
**A.** 26.8 µg/mL

**Q.** What about the “Bmax (MFI)” value [4] of the same binder?
**A.** 27.7 MFI

**Q.** What about the EC50 [4] of the same binder?
**A.** 0.178 µg/mL

B2: chimeric antibody 104E10 (antibody, human IgG1, kappa)
heavy: not shown
light: QIVLTQSPAIMSASPGEKVTMTCSASSSVIYMHWFQQKPGTSPKLWIYSTSNLASGVPARFSGSGSGTSYSLTISRMEAEDAATYYCQQRRSYPYTFGGGTKLEIKRTVAAPSVFIFPPSDEQLKSGTASVVCLLNNFYPREAKVQWKVDNALQSGNSQESVTEQDSKDSTYSLSSTLTLSKADYEKHKVYACEVTHQGLSSPVTKSFNRGEC
notes: Produced in YB2/0
**Q.** What does the source list for B2?
**A.** ADCC EC50, Fcγ chain-CD303 Jurkat target cells with NK cells [1]: 8.28 ng/mL; ADCC Emax (% lysis), Fcγ chain-CD303 Jurkat target cells with NK cells [1]: 40.5 % lysis; Bmax (MFI) [2]: 29.2 MFI; EC50 [2]: 1.93 µg/mL; IC50 (FcγRIIIa (CD16a) [3]): 18.1 µg/mL; Bmax (MFI) [4]: 23.7 MFI; EC50 [4]: 6.06 µg/mL

B3: chimeric antibody 114D11 (antibody, human IgG1, kappa)
heavy: not shown
light: B2 light with M21I, I30F
notes: Produced in YB2/0
**Q.** For B3, which “ADCC EC50, Fcγ chain-CD303 Jurkat target cells with NK cells” value [1] is on record?
**A.** 3.61 ng/mL

**Q.** And the “ADCC Emax (% lysis), Fcγ chain-CD303 Jurkat target cells with NK cells” value [1]?
**A.** 37.4 % lysis

**Q.** What about the “Bmax (MFI)” value [2] of the same binder?
**A.** 30.1 MFI

**Q.** And the EC50 [2]?
**A.** 1.7 µg/mL

**Q.** And the IC50 (FcγRIIIa (CD16a) [3])?
**A.** 45 µg/mL

**Q.** And the “Bmax (MFI)” value [4]?
**A.** 24.7 MFI

**Q.** What about the EC50 [4] of the same binder?
**A.** 3.98 µg/mL

B4: humanized antibody 122A2H5 (antibody, human IgG1, kappa)
heavy: not shown
light: DIQMTQSTSSLSASLGDRVTITCQASQDISNYLNWYQQKPDGTVKLLIYYTSRLHTGVPSRFSGSGSGTDYSLTISNLDQEDIATYYCQQGNTLPWTFGGGTKLEIKRTVAAPSVFIFPPSDEQLKSGTASVVCLLNNFYPREAKVQWKVDNALQSGNSQESVTEQDSKDSTYSLSSTLTLSKADYEKHKVYACEVTHQGLSSPVTKSFNRGEC
**Q.** With B4 as the binder, how does the “IC50 for IFN-α secretion from pDCs contained in PBMCs” value (shortened to “IC50 for IFN-α secretion”) [5] read?
**A.** 0.819 ng/mL

B5: humanized antibody 122A2H7 (antibody, human IgG1, kappa, V domains shown)
VH: QVQLQQSGAEVVKPGASVKISCKGSGYTFTDYSMHWVRQAPGQGLEWIGVISTYYGDSNYNQKFKGKVTMTVDKSSSTAYMELSRLTSDDTAVYYCARNGNFYVMDYWGQGTLVTVSS
VL: DIQMTQSTSSLSASLGDRVTITCQASQDISNYLNWYQQKPDGTVKLLIYYTSRLHTGVPSRFSGSGSGTDYSLTISNLDQEDIATYYCQQGNTLPWTFGGGTKLEIKR
**Q.** B5 was tested. Which “IC50 for IFN-α secretion” value [5] did it give?
**A.** 0.865 ng/mL

B6: humanized antibody 122A2H9 (antibody, human IgG1, kappa)
heavy: not shown
light: B4 light with T8P, L15V
**Q.** With B6 as the binder, how does the “IC50 for IFN-α secretion” value [5] read?
**A.** 0.911 ng/mL

**Q.** What about the “IL-2 secretion by CD16 Jurkat cells: 50%, with ch122A2 = 1 (Mean)” value (FcγRIIIa (CD16a) [6]) of the same binder?
**A.** 0.73 ratio to ch122A2

**Q.** And the “IL-2 secretion by CD16 Jurkat cells: 50%, with ch122A2 = 1 (experiment 2126 16 057)” value (FcγRIIIa (CD16a) [6])?
**A.** 0.66 ratio to ch122A2

**Q.** What about the “IL-2 secretion by CD16 Jurkat cells: 50%, with ch122A2 = 1 (experiment 2126 16 059)” value (FcγRIIIa (CD16a) [6]) of the same binder?
**A.** 0.78 ratio to ch122A2

**Q.** What about the “IL-2 secretion by CD16 Jurkat cells: 50%, with ch122A2 = 1 (experiment 2126 16 066)” value (FcγRIIIa (CD16a) [6]) of the same binder?
**A.** 0.74 ratio to ch122A2

B7: humanized antibody 122A2H10 (antibody, human IgG1, kappa, V domains shown)
VH: B5 VH with P41H, G42A, Q43K, G44S, K74T, T87R
VL: B5 VL with T8P, L15V
**Q.** How did the “IC50 for IFN-α secretion” value [5] turn out when B7 was run?
**A.** 0.947 ng/mL

B8: humanized antibody 122A2H14 (antibody, human IgG1, kappa, V domains shown)
VH: B5 VH with P41H, G42A, Q43K, G44S, K74T, T87R
VL: B5 VL with R53N, D79Q
**Q.** Does B8 bind [7]?
**A.** binds

B9: humanized antibody 122A2H15 (antibody, human IgG1, kappa, V domains shown)
VH: B5 VH
VL: B5 VL with R53N, D79Q
**Q.** Does B9 bind [7]?
**A.** binds

B10: humanized antibody 102E9H10 (antibody, human IgG1, kappa, V domains shown)
VH: QIHLVQSGPELKKPGESVKISCKASGYTFTDYSMHWVRQAPGQGLKWMGWINTETGEPTYAQDFKGRFVFSLDTSVSTAYLQINSLKNEDTSTYYCTRNGYYVGYYAMDYWGQGTSVTVSS
VL: QIQLTQSPSFLSASPGERVTITCSASSSVIYIHWFQQKPGTAPKLWIYSTSYLASGVPSRFSGSGSGTSYTLTISRMEAEDFATYYCQQRRSYPFTFGGGTKLEIKR
**Q.** With B10 as the binder, how does the “CD303 ectodomain-binding capacity relative to chimeric antibody 102E9” value (CD303 ectodomain) read?
**A.** 80%

B11: humanized antibody 102E9H6 (antibody, human IgG1, kappa)
heavy: not shown
light: QIQLTQSPSFLSASPGERVTITCSASSSVIYIHWFQQKPGKAPKLWIYSTSYLASGVPSRFSGSGSGTEYTLTISSMEAEDFATYYCQQRRSYPFTFGGGTKLEIKRTVAAPSVFIFPPSDEQLKSGTASVVCLLNNFYPREAKVQWKVDNALQSGNSQESVTEQDSKDSTYSLSSTLTLSKADYEKHKVYACEVTHQGLSSPVTKSFNRGEC
**Q.** With B11 as the binder, how does the “CD303 ectodomain-binding capacity relative to chimeric antibody 102E9” value (CD303 ectodomain) read?
**A.** 73%

B12: humanized antibody 102E9H7 (antibody, human IgG1, kappa)
heavy: not shown
light: B11 light
**Q.** B12 was tested. Which “CD303 ectodomain-binding capacity relative to chimeric antibody 102E9” value (CD303 ectodomain) did it give?
**A.** 76%

B13: humanized antibody 102E9H9 (antibody, human IgG1, kappa, V domains shown)
VH: B10 VH with R38K, Q62D
VL: B10 VL
**Q.** For B13, which “CD303 ectodomain-binding capacity relative to chimeric antibody 102E9” value (CD303 ectodomain) is on record?
**A.** 71%
